Laboratory results from patent US8022177B2, “Peptides and calcium regulation in mammalian cells” (The Board of Trustees of the University of Illinois, priority 2005, dated 2011).
Where two headings read alike, the source gives them in different places.

B1: γ6 A46I: γ6 mutant, alanine 46 replaced by isoleucine (protein, UniProt Q9BXT2 1-260, looked up, variant A46I)
Voltage-dependent calcium …: MMWSNFFLQEENRRRGAAGRRRAHGQGRSGLTPEREGKVKLALLLIAVGATLAVLSVGTEFWVELNTYKANGSAVCEAAHLGLWKACTKRLWQADVPVDRDTCGPAELPGEANCTYFKFFTTGENARIFQRTTKKEVNLAAAVIAVLGLAVMALGCLCIIMVLSKGAEFLLRVGAVCFGLSGLLLLVSLEVFRHSVRALLQRVSPEPPPAPRLTYEYSWSLGCGVGAGLILLLGAGCFLLLTLPSWPWGSLCPKRGHRAT
B2: γ6 G49A: γ6 with glycine 49 mutated to alanine (protein, UniProt Q9BXT2 1-260, looked up, variant G49A)
Voltage-dependent calcium …: MMWSNFFLQEENRRRGAAGRRRAHGQGRSGLTPEREGKVKLALLLAAVAATLAVLSVGTEFWVELNTYKANGSAVCEAAHLGLWKACTKRLWQADVPVDRDTCGPAELPGEANCTYFKFFTTGENARIFQRTTKKEVNLAAAVIAVLGLAVMALGCLCIIMVLSKGAEFLLRVGAVCFGLSGLLLLVSLEVFRHSVRALLQRVSPEPPPAPRLTYEYSWSLGCGVGAGLILLLGAGCFLLLTLPSWPWGSLCPKRGHRAT
B3: γ1: wild-type calcium channel γ1 subunit (protein, UniProt Q06432 1-222, looked up)
Voltage-dependent calcium …: MSQTKMLKVRVTLFCILAGIVLAMTAVVTDHWAVLSPHMEHHNTTCEAAHFGLWRICTKRIPMDDSKTCGPITLPGEKNCSYFRHFNPGESSEIFEFTTQKEYSISAAAIAIFSLGFIILGSLCVLLSLGKKRDYLLRPASMFYAFAGLCILVSVEVMRQSVKRMIDSEDTVWIEYYYSWSFACACAAFILLFLGGLALLLFSLPRMPRNPWESCMDAEPEH
B4: γ1 T12G: γ1 single mutant containing just part of the GXXXA motif (protein, UniProt Q06432 1-222, looked up, variant T12G)
Voltage-dependent calcium …: MSQTKMLKVRVGLFCILAGIVLAMTAVVTDHWAVLSPHMEHHNTTCEAAHFGLWRICTKRIPMDDSKTCGPITLPGEKNCSYFRHFNPGESSEIFEFTTQKEYSISAAAIAIFSLGFIILGSLCVLLSLGKKRDYLLRPASMFYAFAGLCILVSVEVMRQSVKRMIDSEDTVWIEYYYSWSFACACAAFILLFLGGLALLLFSLPRMPRNPWESCMDAEPEH
B5: γ1 (T12G, I16A): γ1 double mutant containing the complete GXXXA motif in TM1 (protein, UniProt Q06432 1-222, looked up, variant T12G I16A)
Voltage-dependent calcium …: MSQTKMLKVRVGLFCALAGIVLAMTAVVTDHWAVLSPHMEHHNTTCEAAHFGLWRICTKRIPMDDSKTCGPITLPGEKNCSYFRHFNPGESSEIFEFTTQKEYSISAAAIAIFSLGFIILGSLCVLLSLGKKRDYLLRPASMFYAFAGLCILVSVEVMRQSVKRMIDSEDTVWIEYYYSWSFACACAAFILLFLGGLALLLFSLPRMPRNPWESCMDAEPEH

Key:
Cav3.1 [1] = molecular target: T1, Cav3.1 (Homo sapiens, UniProt O43497); experiment: Whole-cell patch clamp of Cav3.1 current in Cav3.1/HEK cells transfected with chimeras, truncations and point mutants (Example 6); assay type: cell-based; conditions: FIG. 38, FIG. 41
T1 construct: expressed in transfected cells; host or cells: HEK-293, stably transfected
Description: Transfection. HEK-293 cells stably transfected with either Cav3.1 or Cav3.2 were transiently transfected, at 50% confluency, with a bicistronic vector encoding both GFP and γ subunit cDNA's using Lipofectamine 2000 reagent (Invitrogen, Carlsbad, Calif.) as per the manufacturer's recommendations. Cells were visualized using an Nikon inverted microscope with an FITC filter.
Electrophysiology. Whole cell Ca^2+ currents were recorded using an Axon Instruments Axopatch-1D amplifier and Clampex 8.0 software. Pipettes were made from boroscillicate glass and had typical resistances of 2-4 Mohms. The pipette solution contained (in mM) 130 NaCl, 10 EGTA, 2 or 5 MgCl2, 1 CaCl2, 10 HEPES, 3 Tris-ATP, and 0.3 Li2GTP. Two different bath solutions were used. The first, used for experiments with γ subunit chimeras, contained (in mM) 130 NaCl, 1 MgCl2, 2 CaCl2, 10 glucose, 10 HEPES, and 0.03 TTX. The second, used for experiments with γ subunit containg point mutations, contained (in mM) 137 NaCl, 1 KCl, 1 MgCl2, 0.33 NaH2PO4, 2 CaCl2, 10 HEPES. All solutions were adjusted to pH 7.4 with NaOH and 280 mOsm with sucrose. No Cl^− currents were evident in any HEK-293 cells line, stably transfected or not, and no attempt was made to eliminate Cl^− currents from data records.
All electrophysiological data are from current records in which voltage offset was adjusted, pipette capacitance and whole cell capacitance were compensated and series resistance was compensated to >80%. Currents were filtered at 10 kHz and recorded at 40 kHz. In some cases, current records were off-line filtered at 1K. Current voltage relationships were recorded using an on-line P/−4 subtraction procedure to eliminate linear capacitative and leakage currents. Only recordings with less than 50 pA leakage current were used.
Several different protocols were used to determine the biophysical characteristics of currents in HEK-293 cells. The voltage dependence of activation was determined using “tail” currents. Cells were depolarized from a holding potential of −100 mV to test potentials ranging from −90 mV to +60 mV. Pulse durations varied and corresponded to the time to peak current measured at the corresponding test potentials. Following the conditioning pulse cells were re-polarized to −60 mV and the amplitude of the resulting “tail” current measured. The voltage dependence of inactivation was measured by depolarizing the cells to voltages ranging from −120 mV to 50 mV for 500 ms to inactivate the Ca^2+ channels. After this conditioning step the membrane was returned to the holding potential (−100 mV) for 3 ms and then depolarized a second time to +20 mV for 150 ms during which time the peak current was measured. Time constants for inactivation were measured by fitting a single exponential equation to the decay phase of currents elicited by voltage steps from −50 to +30 mV from a holding potential of −100 mV. Time constants for deactivation were measured by fitting either a single or a double exponential to the decay phase of tail currents.
To account for the inherent variation in calcium current density in the HEK-Cav3.1 stable cell line the averaged current density of each test group of cells was normalized to the mean current density of a control group of cells. A minimum of 5 cells (typically 7 to 10) from each group was used to calculate the mean current densities of test and control cells. At least two independent transfections were performed for each test condition. […]

Cav3.1 [2] = molecular target: T1, Cav3.1; experiment: Whole-cell patch clamp of Cav3.1 current in Cav3.1-HEK cells transfected with γ6, γ4, their first transmembrane domains or point mutants (Example 3); assay type: cell-based; conditions: for Normalized Current Density: relative to vector control (100.0%), Table 3.3
Description: Transfection. HEK-293 cells stably transfected with the Cav3.1 α1 subunit were transiently transfected with vectors containing GFP and γ subunits cDNA when the cultures reached 50% confluency. Lipofectamine 2000 reagent (Invitrogen) was used following manufacturer's protocol.
Electrophysiology. Whole cell Ca2+ currents were recorded at room temperature using an Axon Instruments Axopatch-1D amplifier, a Digidata 1200 interface and pClamp8.0 software about 48 hours after transfection. Cell capacitance was typically around 10 pF, but ranged from 5-40 pF. Recording micropipettes were made from borosilicate glass (2-3 Mohms tip resistance), and filled with solution contained (in mM) 130 NaCl, 10 EGTA, 2 MgCl2, 1 CaCl2, 10 HEPES, 3 Tris-ATP, and 0.3 Li2GTP or 0.3 Tris-GTP. Tyrode's solution was used as the bath solution. It contained (in mM) 137 NaCl, 1 KCl, 1 MgCl2, 0.33 NaH2PO4, 2 CaCl2, 10 HEPES. Both solutions were adjusted to pH 7.4 with NaOH and 280 mOsm with sucrose.
We determined the biophysical characteristics of Cav3.1 currents in transfected HEK-293 cells and effects of the first transmembrane domain of γ4 and γ6 on these properties. Test parameters were optimized for studying Cav3.1 current. The time constant (τ) of deactivation (τdeac) was obtained by single exponential fitting of tail currents. For Cav3.1 currents, the cells were clamped at a holding potential of −100 mV, then depolarized to −20 mV for 4 msec, and repolarized to various voltages from −120 mV to −60 mV at 10 mV interval for 150 msec to elicit tail currents.
The voltage dependence of activation was measured using tail currents. For Cav3.1 currents, the cells were clamped at a holding potential equal to −100 mV, and then depolarized briefly to a conditioning potential, varying from −90 mV to +60 mV, and finally clamped at −60 mV before inactivation. Using this protocol, all tail currents are elicited at the same driving force (at −60 mV), so the current amplitude accurately reflects the number of channels opened during the different conditioning potentials.
A series of conditioning prepulses of 500 msec were used to measure voltage dependence of inactivation in our experiments. Channels initially open and then reach steady-state inactivation during the 500 msec long prepulses. The membrane potential is stepped to a fixed test potential of −20 mV, where maximal peak current is elicited. Currents elicited at each test potential reflect how many channels are not in the inactivated state after a steady-state inactivation; that is, how many channels are available to open. The conditioning prepulse potentials were changed from −120 mV to 50 mV, and the test potential is fixed at −20 mV.
Data collection and analysis. To probe the structural features necessary for the function of γ subunits, we are using HEK-293 cell line stably transfected with Cav3.1 α1 subunit. These cells are then transiently transfected with vectors containing various chimeric, truncated or mutant gamma subunits. […] There is inherent variation in calcium current density in the HEK-Cav3.1 stable cell line likely due to differences in the batch used, passenger number, extent of cellular confluence, or for other unknown reasons. The averaged current density of each test group of cells was normalized to the mean current density of a parallel control group of cells plated from the same batch of cells and analyzed on the same day. A minimum of 5 cells (typically 7 to 10) from each group was used to calculate the mean behavior of test and control cells from each days recording. At least two independent transfections were performed for each test condition. Overall, averages were obtained from 21 control groups of cells that had been transfected with empty vector over several months. The data are pooled together to reduce the variance. […] The current density of the control cells over many months justified the pooling of data recorded from different batches of cells transfected with mutated γ subunits. […]

T1 sequence (O43497 whole entry, the tested form may be a part): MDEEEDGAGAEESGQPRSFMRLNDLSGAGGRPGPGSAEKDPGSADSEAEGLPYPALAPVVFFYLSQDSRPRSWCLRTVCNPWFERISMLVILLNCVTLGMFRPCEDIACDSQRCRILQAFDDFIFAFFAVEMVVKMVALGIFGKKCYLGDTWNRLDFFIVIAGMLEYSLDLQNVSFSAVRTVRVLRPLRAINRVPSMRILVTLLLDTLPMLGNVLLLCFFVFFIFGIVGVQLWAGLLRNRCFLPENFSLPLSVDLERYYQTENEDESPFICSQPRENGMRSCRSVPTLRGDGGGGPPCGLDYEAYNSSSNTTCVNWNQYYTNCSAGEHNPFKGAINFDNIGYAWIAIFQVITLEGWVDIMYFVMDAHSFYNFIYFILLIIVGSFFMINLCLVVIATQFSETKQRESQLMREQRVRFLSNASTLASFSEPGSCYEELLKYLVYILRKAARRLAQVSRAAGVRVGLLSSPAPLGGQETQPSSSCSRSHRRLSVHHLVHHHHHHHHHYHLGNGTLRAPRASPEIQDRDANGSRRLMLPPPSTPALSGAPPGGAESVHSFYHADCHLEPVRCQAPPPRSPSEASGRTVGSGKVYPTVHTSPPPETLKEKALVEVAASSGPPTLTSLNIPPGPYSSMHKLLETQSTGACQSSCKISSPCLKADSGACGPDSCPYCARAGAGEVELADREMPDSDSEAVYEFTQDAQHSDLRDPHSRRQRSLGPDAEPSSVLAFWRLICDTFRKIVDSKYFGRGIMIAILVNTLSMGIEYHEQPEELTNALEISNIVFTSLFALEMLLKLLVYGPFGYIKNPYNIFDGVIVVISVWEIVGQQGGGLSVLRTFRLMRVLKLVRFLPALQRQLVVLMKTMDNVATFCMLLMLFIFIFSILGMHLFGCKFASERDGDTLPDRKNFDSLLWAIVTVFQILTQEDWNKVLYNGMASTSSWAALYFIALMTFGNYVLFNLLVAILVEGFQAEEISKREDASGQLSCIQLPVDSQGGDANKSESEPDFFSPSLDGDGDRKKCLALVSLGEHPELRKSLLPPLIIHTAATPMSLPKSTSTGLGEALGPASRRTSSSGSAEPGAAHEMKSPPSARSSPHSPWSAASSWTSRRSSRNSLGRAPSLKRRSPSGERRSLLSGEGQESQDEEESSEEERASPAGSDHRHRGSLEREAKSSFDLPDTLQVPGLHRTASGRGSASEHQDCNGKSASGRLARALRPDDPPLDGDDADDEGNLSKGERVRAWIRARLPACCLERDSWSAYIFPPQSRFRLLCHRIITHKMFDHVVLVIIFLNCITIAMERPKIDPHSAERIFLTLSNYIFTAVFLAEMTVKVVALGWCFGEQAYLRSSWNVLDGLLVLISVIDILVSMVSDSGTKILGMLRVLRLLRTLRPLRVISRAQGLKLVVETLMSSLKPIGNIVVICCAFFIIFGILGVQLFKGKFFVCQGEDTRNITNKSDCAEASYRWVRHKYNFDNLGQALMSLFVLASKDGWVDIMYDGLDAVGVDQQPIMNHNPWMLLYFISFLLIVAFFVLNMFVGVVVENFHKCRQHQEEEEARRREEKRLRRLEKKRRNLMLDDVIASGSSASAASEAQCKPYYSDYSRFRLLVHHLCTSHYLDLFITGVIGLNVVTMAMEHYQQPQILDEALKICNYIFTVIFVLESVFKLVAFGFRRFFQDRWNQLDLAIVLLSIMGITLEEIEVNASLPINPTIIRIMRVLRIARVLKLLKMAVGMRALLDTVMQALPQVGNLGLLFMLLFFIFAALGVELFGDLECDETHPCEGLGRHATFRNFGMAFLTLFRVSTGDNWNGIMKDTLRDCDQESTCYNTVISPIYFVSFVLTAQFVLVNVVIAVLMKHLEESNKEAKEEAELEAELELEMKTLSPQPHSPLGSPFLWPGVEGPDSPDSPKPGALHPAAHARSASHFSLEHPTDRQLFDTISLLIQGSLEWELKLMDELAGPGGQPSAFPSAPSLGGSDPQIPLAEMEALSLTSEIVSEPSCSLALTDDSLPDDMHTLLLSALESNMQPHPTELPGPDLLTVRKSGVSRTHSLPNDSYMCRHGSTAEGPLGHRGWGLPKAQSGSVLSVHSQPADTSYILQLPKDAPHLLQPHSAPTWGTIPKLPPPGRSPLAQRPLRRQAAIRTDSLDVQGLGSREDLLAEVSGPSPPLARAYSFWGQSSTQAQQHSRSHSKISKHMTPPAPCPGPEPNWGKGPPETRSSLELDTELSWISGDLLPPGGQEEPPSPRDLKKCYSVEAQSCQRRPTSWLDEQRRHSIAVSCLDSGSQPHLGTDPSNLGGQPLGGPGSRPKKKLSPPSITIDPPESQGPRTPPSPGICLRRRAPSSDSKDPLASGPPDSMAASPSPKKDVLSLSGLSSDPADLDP

Molecule | Effect on Cav3.1 calcium current density (Cav3.1 [1]) | Inhibitory function on Cav3.1 calcium current (Cav3.1 [2]) | further results
B1 | also altered Cav3.1 current density | did not inhibit calcium current | Inhibitory function on Cav3.1 calcium current (Cav3.1 [2]; listed as A461): no longer inhibitory
B2 | – | – | Normalized current density, % of control (Cav3.1 [1]; Cav3.1/HEK cells): 67.6%±5.9%; Normalized Current Density (Cav3.1 [2]): 67.6%; Normalized Current Density (Cav3.1 [2]; listed as G49A): 67.6%±5.9%
B3 | does not alter calcium current density | no effect on Cav3.1 calcium current | –
B4 | no effect | – | –
B5 | significantly inhibited | – | –
